Biological target: T1, mouse CLU with C-terminal (His)6 (CLU-His), recombinant secreted clusterin, Q06890
T1 chain: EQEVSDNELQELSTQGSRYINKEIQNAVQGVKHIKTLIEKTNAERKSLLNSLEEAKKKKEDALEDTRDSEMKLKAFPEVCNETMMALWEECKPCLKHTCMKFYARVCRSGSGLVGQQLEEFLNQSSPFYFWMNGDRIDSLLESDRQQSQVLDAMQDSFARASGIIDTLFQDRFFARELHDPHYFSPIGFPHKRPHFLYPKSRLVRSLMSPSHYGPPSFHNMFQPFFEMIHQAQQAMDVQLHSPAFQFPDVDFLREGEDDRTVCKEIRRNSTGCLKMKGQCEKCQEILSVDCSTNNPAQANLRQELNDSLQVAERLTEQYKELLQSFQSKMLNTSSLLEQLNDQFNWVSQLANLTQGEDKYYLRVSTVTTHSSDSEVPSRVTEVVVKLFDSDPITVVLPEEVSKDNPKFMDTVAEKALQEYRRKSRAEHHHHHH

B1: MMP-9, propeptide-cleaved (APMA-processed active MMP-9) (protein)
chain: FQTFKGLKWDHHNITYWIQNYSEDLPRDMIDDAFARAFAVWGEVAPLTFTRVYGPEADIVIQFGVAEHGDGYPFDGKDGLLAHAFPPGAGVQGDAHFDDDELWSLGKGVVIPTYYGNSNGAPCHFPFTFEGRSYSACTTDGRNDGTPWCSTTADYDKDGKFGFCPSERLYTEHGNGEGKPCVFPFIFEGRSYSACTTKGRSDGYRWCATTANYDQDKLYGFCPTRVDATVVGGNSAGELCVFPFVFLGKQYSSCTSDGRRDGRLWCATTSNFDTDKKWGFCPDQGYSLFLVAAHEFGHALGLDHSSVPEALMYPLYSYLEGFPLNKDDIDGIQYLYGRGSKPDPRPPATTTTEPQPTAPPTMCPTIPPTAYPTVGPTVGPTGAPSPGPTSSPSPGPTGAPSPGPTAPPTAGSSEASTESLSPADNPCNVDVFDAIAEIQGALHFFKDGWYWKFLNHRGSPLQGPFLTARTWPALPATLDSAFEDPQTKRVFFFSGRQMWVYTGKTVLGPRSLDKLGLGPEVTHVSGLLPRRLGKALLFSKGRVWRFDLKSQKVDPQSVIRVDKEFSGVPWNSHDIFQYQDKAYFCHGKFFWRVSFQNEVNKVDHEVNQVDDVGYVTYDLLQCP
- digestion of CLU by active MMP-9 (SDS/PAGE, Coomasie staining; gelatin as known substrate): the density of CLU protein, separated as a and 6 subunits, changed little, whereas most high molecular weight gelatin disappeared upon incubation with MMP-9, indicating that CLU is not a substrate for MMP-9 in vitro

— US10398755
